Data as given in paper PMC3809612.

Biological target: rat collagen (Type I collagen), coated on 96-well plates (rat) (UniProt P02454)
Assay: binding of fluorescent protein or nanoworm conjugate to coated 96-well plates

UniProt P02454, sequence (P02454 152-1207, chain 1 of 2): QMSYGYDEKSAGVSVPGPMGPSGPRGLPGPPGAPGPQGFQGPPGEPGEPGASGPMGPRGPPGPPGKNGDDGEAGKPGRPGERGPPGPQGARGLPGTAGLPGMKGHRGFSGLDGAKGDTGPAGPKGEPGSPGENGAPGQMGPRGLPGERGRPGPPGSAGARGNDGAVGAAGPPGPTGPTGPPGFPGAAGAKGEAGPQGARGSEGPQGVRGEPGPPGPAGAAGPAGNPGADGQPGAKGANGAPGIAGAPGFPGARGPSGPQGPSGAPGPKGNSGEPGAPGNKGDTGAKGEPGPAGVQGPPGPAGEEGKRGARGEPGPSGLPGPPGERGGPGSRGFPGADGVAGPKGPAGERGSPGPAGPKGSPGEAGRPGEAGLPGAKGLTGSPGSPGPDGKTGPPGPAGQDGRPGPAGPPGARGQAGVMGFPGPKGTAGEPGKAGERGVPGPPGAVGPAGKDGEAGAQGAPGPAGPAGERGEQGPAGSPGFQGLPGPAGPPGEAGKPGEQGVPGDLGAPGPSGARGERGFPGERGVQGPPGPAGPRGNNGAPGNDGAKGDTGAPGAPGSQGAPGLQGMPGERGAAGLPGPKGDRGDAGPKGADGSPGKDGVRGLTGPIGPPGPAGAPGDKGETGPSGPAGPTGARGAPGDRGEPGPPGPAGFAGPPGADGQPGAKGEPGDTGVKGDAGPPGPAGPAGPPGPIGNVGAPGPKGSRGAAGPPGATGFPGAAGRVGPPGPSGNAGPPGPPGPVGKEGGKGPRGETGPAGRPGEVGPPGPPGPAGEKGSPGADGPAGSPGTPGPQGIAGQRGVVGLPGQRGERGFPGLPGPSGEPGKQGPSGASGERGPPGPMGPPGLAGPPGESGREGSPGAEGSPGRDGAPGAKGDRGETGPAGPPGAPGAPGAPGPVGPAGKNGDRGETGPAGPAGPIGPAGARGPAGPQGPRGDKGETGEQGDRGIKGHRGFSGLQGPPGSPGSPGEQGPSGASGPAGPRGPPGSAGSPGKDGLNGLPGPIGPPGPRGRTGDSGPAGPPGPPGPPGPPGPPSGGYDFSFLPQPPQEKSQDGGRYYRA
UniProt P02454, sequence (P02466 86-1125, chain 2 of 2, further chain): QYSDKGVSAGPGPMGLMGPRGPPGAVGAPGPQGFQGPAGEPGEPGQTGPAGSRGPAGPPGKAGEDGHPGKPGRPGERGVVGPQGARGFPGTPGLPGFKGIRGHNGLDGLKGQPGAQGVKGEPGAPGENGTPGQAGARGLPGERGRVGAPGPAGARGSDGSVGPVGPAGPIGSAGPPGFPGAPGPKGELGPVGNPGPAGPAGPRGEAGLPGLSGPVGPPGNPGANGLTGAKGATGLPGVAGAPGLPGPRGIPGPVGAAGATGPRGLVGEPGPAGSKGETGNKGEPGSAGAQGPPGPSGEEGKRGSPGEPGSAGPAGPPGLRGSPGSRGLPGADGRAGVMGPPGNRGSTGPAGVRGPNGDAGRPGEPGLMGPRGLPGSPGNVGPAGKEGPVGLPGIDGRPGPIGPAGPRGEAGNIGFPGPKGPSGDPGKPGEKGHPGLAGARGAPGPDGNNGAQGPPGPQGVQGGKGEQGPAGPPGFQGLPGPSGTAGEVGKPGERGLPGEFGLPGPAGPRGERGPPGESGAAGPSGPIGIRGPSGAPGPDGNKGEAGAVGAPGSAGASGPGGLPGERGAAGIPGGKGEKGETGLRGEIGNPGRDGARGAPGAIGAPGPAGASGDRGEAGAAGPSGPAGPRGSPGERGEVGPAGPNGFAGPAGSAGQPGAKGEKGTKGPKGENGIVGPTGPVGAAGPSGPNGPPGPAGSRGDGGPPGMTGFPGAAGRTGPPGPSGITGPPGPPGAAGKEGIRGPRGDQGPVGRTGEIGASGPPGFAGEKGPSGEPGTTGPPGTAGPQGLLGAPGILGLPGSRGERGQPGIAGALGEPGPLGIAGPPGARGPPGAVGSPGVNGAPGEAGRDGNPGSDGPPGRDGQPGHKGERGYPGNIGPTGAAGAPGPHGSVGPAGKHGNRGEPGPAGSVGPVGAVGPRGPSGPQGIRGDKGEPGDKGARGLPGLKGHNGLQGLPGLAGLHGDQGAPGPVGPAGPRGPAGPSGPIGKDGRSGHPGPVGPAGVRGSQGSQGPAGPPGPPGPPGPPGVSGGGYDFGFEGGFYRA

Substance: 45-kDa gelatin-binding fibronectin proteolytic fragment, labelled with VivoTag-S750 (domain or fragment)
- fold increase in binding to heated collagen, normalized to collagen at 37 °C: 7.2 x
- half-maximal binding temperature (temperature to which the collagen was heated): 43.4 °C

Substance: fibronectin fragment-conjugated iron oxide nanoworms
- fold increase in binding over unheated controls: 6 fold
- half-maximal binding temperature (temperature to which the collagen was heated): 41.7 °C
